Experimental data from patent US20050037444A1 (INTERCELL, published 2005).

T1: soluble HLA class II molecule DRA1*0101/DRB1*0401 (human, UniProt P01903 26-216; P01911 30-227, limits assumed)
T1 construct: Recombinant soluble MHC class II heterodimer expressed in SC-2 cells (as in Aichinger et al., 1997); also called soluble DRA1*0101/DRB1*0401 molecules
T1 MHC II alpha: not shown
T1 MHC II beta: not shown


Molecular target: T1, soluble HLA class II molecule …
Experiment: competition assay vs biotinylated UD4, L243 capture ELISA
VIVSTLFLISQHQAQA (synthetic peptide) [p24-40 of Seq ID 56 (LPXTGV)]: no binding (tested: 200 µM).
GESLNIIASRYGVSVDQLMAANNLRG (synthetic peptide) [p96-121 of Seq ID 89 (ORF1hom2)]: no binding (tested: 200 µM).
KLLVLTMSTLFATQIMNSNHAKASV (synthetic peptide) [p4-29 of Seq ID 94 (EMPBP)]: binds.
MTLPLMALLALSSIVAFVLPRKRKN (synthetic peptide) [p623-647 of Seq ID 142 (LPXTGVI)]: no binding (tested: 200 µM).
FMVEGQRVRTISTYAINNTRCTIF (synthetic peptide) [p395-418 of Seq ID 142 (LPXTGVI)]: no binding (tested: 200 µM).
PSLNIKNVNYQYAVPSYSPT (synthetic peptide) [p306-326 of Seq ID 94 (EMPBP)]: binds.
MHVPSFQNNTTATHQN (synthetic peptide) [p254-270 of Seq ID 94 (EMPBP)]: binds.
PKLRSFYSIRKSTLGVASVIVST (synthetic peptide) [p6-28 of Seq ID 56 (LPXTGV)]: binds.
TIFRYVEGKSLYE (synthetic peptide) [p416-428 of Seq ID 142 (LPXTGVI)]: no binding (tested: 200 µM).
IKINHFCVVPQINSFKVIPPYGHNS (synthetic peptide) [p226-251 of Seq ID 94 (EMPBP)]: no binding (tested: 200 µM).
NNLRGYLIMPNQTLQIPNG (synthetic peptide) [p117-136 of Seq ID 89 (ORF1hom2)]: no binding (tested: 200 µM).
AGGIFYNQTNQQLLVLCDGMGGHK (synthetic peptide) [p23-47 of Seq ID 114 (POV2)]: no binding (tested: 200 µM).
QSWWGLYALLGMLALFIPKFRKESK (synthetic peptide) [p871-896 of Seq ID 56 (LPXTGV)]: no binding (tested: 200 µM).
YDYKYFYSYKVVKGVKKYFSFSQS (synthetic peptide) [p275-299 of Seq ID 94 (EMPBP)]: binds.
MNYGYGPGVVTSRTISASQA (synthetic peptide) [p240-260 of Seq ID 74 (ORF1hom1)]: binds.
KEFKSFYSIRKSSLGVASVAISTL (synthetic peptide) [p6-30 of Seq ID 142 (LPXTGVI)]: binds.
KDYAYIRFSVSNGTKAVKIVSSTHFNN (synthetic peptide) [p218-244 of Seq ID 142 (LPXTGVI)]: binds.
ALVFEKSVVIANVGDSRA (synthetic peptide) [p107-124 of Seq ID 114 (POV2)]: no binding (tested: 200 µM).
FPYIPDKAVYNAIVKVVVANIGYEGQ (synthetic peptide) [p620-646 of Seq ID 56 (LPXTGV)]: binds.
YKVVKGVKKYFSFSQSNGYKIG (synthetic peptide) [p284-305 of Seq ID 94 (EMPBP)]: binds.
IKLVSYDTVKDYAYIRFSVSNGTKA (synthetic peptide) [p209-233 of Seq ID 142 (LPXTGVI)]: binds.
